Patent US20250043302A1, “MUTATED HYDROXYPHENYLPYRUVATE DIOXYGENASE POLYPEPTIDE, AND CODING GENE AND USE THEREOF” (BEIJING DABEINONG BIOTECHNOLOGY CO., LTD., priority 2021, published 2025)

B1: NtHPPD-02: nucleotide sequence encoding wild-type Nicotiana tabacum HPPD; vector DBN11750 (nucleic acid)
DNA: ATGGGGAAGCTGGAAACCGTCACTACCACCTCGGCGGCGGCTGCTGATGATTCATCGGAATTAACAACCAACTTCAAGTTGGTTGGTTTCAAAAATTTCATCAGAACAAACCCAAGGTCTGATTTCTTCTCCGTCAAGAGCTTCCACCACATTGAATTCTGGTGCGGTGACGCAACTAACACAGCGCGCCGCTTCTCATGGAGCCTAGGGATGCCAATTGCAGCTAAGAGTGATCTTTCAACAGGAAACAGCGTGCACGCCTCCTACCTCCTCCGGCCCGTAAGCGGTTCTTTACAGTTCCTGTTTACAGCACCATATTCACCTTCTATTTCGACTCCTAGTTCAGCTGCAATCCCATCTTTTTCCACATCTACACATAGGTCTTTCACTACAACACATGGACTGGGTGTTCGTGCCGTCGCCCTCGAGGTGGAGAATGCTTATACTGCCTTCAGTGCTTCTGTCTCCAGAGGCGCCAAGCCAATGTTTGAACCTGTGACAATTGATGAACAAGTAGCAATGGCTGAGGTTCATTTGTACGGCGATGTTGTGCTGCGATTTGTTTCTTATCTCAAGGACGCCGACAACCTGGTCTTCCTGCCGGGGTTTGAGGCCATGGATGAAACTGCTAGTTACAAAGAACTTGATTATGGAATACGGCGTTTGGATCATGCTGTGGGCAATGTTCCAGAACTCGGCCCGGTAGTTGATTACATCAAGAGGTTTACTGGATTTCATGAATTTGCAGAGTTTACCGCTGAAGATGTGGGAACTGCGGAAAGTGGGCTAAACTCCATGGTTCTTGCGAACAATGATGAGACTGTGCTCCTCCCTCTGAATGAGCCTGTTTATGGCACCAAAAGAAAATCTCAGATACAAACATATCTTGAGCATAATGAAGGAGCTGGGGTGCAGCACCTTGCTCTTGTTACTGAAGACATCTTTAAGACTTTGACAGAGATGAGGAAGAGAAGTGGAGTTGGAGGTTTTGAGTTCATGCCTTCCCCCCCGCCGACCTACTACAAGAATTTGAAGAACAGGGCTGGTGACGTCCTCTCAGACGAGCAGATTTTGGCTTGTGAGGAGCTTGGCATCTTGGTAGACCGGGACGACCAGGGGACGCTTCTCCAAATTTTCACAAAACCCGTCGGGGACCGCCCCACCATATTTATTGAGATCATCCAGAGGATAGGCTGCATGCTTAAAGATGGAAAAGGTCAAGTGTACCAGAAGGGTGGTTGTGGTGGGTTTGGCAAAGGAAATTTTTCTGAGCTGTTCAGAAGCATAGAAGAATATGAGAAGACACTGGAAGCAAAACAAGCAAATCAAGTTGCGGCCGCGTGA
modifications: NtHPPD-02 Nucleotide Sequence
notes: vector DBN11750
B2: GmHPPDm-F383W-02: nucleotide sequence encoding Glycine max HPPD with F383W; vector DBN11748 (nucleic acid)
DNA: ATGCCAATGTACACACCATCGCTCTCCGCCCCTTCTTCCAACCATATTCAGCCATCCGTGACTCTGCCTCTCTACATCACAACCACCAAGTTGAACCTGAAGCAGCAGCACCATACGACTCCTATGCCTATACCCATGTGCAATGAGATCCAAGCACAGGCTCAGGCACAAGCTCAACCCGGATTCAAACTCGTGGGATTCAAGAACTTCGTCCGTACCAATCCAAAATCTGACCGCTTCCAGGTGAACAGATTCCACCACATAGAGTTTTGGTGTACTGATGCAACGAATGCTTCGAGGAGGTTTTCATGGGGCTTAGGCATGCCGATTGTAGCAAAGTCAGACCTTTCTACAGGGAACCAAATTCATGCAAGCTATCTGCTCCGCTCAGGTGATTTGTCTTTCTTGTTCTCAGCTCCATATTCTCCATCATTATCTGCTGGGTCATCAGCAGCATCTAGTGCGTCGATCCCTAGCTTTGATGCCGCCACCTGCCTCGCCTTCGCCGCCAAACATGGATTTGGTGTTCGCGCCATTGCTCTTGAGGTTGCCGATGCCGAGGCTGCTTTTAGCGCCTCCGTCGCCAAGGGAGCTGAGCCTGCGTCACCTCCTGTTCTTGTTGATGATCGAACTGGTTTTGCTGAAGTGCGTCTTTACGGCGACGTGGTGCTCAGATATGTTAGTTACAAGGATGCTGCTCCTCAAGCGCCGCACGCTGATCCTTCAAGATGGTTTCTTCCGGGGTTTGAGGCCGCTGCTAGTTCATCTTCCTTCCCGGAGTTGGATTACGGCATACGGCGGCTTGACCATGCTGTCGGCAATGTTCCTGAGCTTGCTCCGGCGGTACGGTACTTGAAAGGTTTCTCCGGGTTCCATGAATTTGCAGAGTTCACGGCGGAAGATGTTGGAACAAGTGAAAGCGGATTGAATTCTGTTGTTTTGGCCAACAACAGTGAAACTGTTCTGCTCCCCCTCAATGAACCAGTTTATGGCACAAAGCGCAAGAGCCAGATTGAAACATATCTCGAGCACAATGAAGGCGCCGGCGTCCAGCATCTTGCTTTGGTGACTCATGATATCTTCACAACACTTAGGGAGATGAGGAAGAGGAGTTTCCTCGGCGGGTTTGAATTCATGCCCAGTCCCCCGCCGACCTACTATGCAAATCTGCACAACAGGGCTGCAGATGTGCTGACTGTAGACCAGATCAAGCAATGTGAAGAACTTGGAATTTTAGTGGATAGAGACGACCAAGGTACACTACTTCAAATATTCACCAAACCAGTCGGTGACAGACCAACAATTTGGATCGAGATTATACAAAGAATTGGATGCATGGTCGAGGATGAAGAAGGGAAGGTGTACCAGAAGGGAGCATGTGGTGGTTTTGGGAAAGGAAATTTTTCTGAGCTGTTTAAATCCATCGAGGAATATGAGAAAACCTTAGAAGCTAAAAGAACTGCATGA
modifications: GmHPPDm-F383W-02 Nucleotide Sequence
notes: vector DBN11748

Tests used:
Type in all cases: in vivo
[1] = system: Arabidopsis thaliana T1 plants; test: Topramezone tolerance of transgenic Arabidopsis thaliana T1 plants (spray, bleached leaf area grade, damage score); conditions: 7 DAT, Table 4; for Classification and statistics of the grade of pesticide damage: Grade 0 / Classification and statistics of the grade of pesticide damage: Grade 1 / Classification and statistics of the grade of pesticide damage: Grade 2 / Classification and statistics of the grade of pesticide damage: Grade 3: number of plants; for Scores: pesticide damage score 0-100
Method in brief: (§1)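 Damage graded 0–3 from the proportion of bleached leaf area 7 days after spraying. Plants were glufosinate-selected T1 lines, 18 days after sowing, plus vector and wild-type controls. Rates: mesotrione 52.5–420, isoxaflutole 35–280, topramezone 25–200 g ai/ha, with water (0×).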

[2] = system: Arabidopsis thaliana T1 plants; test: Isoxaflutole tolerance of transgenic Arabidopsis thaliana T1 plants (spray, bleached leaf area grade, damage score); set-up: Scores (pesticide damage): scale not given here; conditions: spray, Arabidopsis thaliana T1 plants; for Classification and statistics of the grade of pesticide damage: Grade 0 (number of plants) / Classification and statistics of the grade of pesticide damage: Grade 1 (number of plants) / Classification and statistics of the grade of pesticide damage: Grade 2 (number of plants) / Classification and statistics of the grade of pesticide damage: Grade 3 (number of plants): 16 plants
Method in brief: as §1

[3] = system: Arabidopsis thaliana T1 plants; test: Mesotrione tolerance of transgenic Arabidopsis thaliana T1 plants (spray, bleached leaf area grade, damage score); set-up: Scores: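 damage score 0-100 computed as Σ(N×S)/(T×M)×100 over grades 0-3 with higher meaning more damage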; conditions: Arabidopsis thaliana T1 plants; for Grade 0 (classification and statistics of the grade of pesticide damage; number of plants) / Grade 1 (classification and statistics of the grade of pesticide damage; number of plants) / Grade 2 (classification and statistics of the grade of pesticide damage; number of plants) / Grade 3 (classification and statistics of the grade of pesticide damage; number of plants): 16 plants
Method in brief: as §1

[4] = isoxaflutole 35 g ai/ha (0.5x field concentration)
[5] = isoxaflutole 70 g ai/ha (1x field concentration)

Molecule | Classification and statistics of the grade of pesticide damage: Grade 0 ([1]; topramezone 25 g ai/ha (1×)) | Classification and statistics of the grade of pesticide damage: Grade 1 ([1]; topramezone 25 g ai/ha (1×)) | Classification and statistics of the grade of pesticide damage: Grade 2 ([1]; topramezone 25 g ai/ha (1×)) | Classification and statistics of the grade of pesticide damage: Grade 3 ([1]; topramezone 25 g ai/ha (1×)) | Classification and statistics of the grade of pesticide damage: Grade 0 ([1]; topramezone 100 g ai/ha (4×)) | Classification and statistics of the grade of pesticide damage: Grade 1 ([1]; topramezone 100 g ai/ha (4×)) | Classification and statistics of the grade of pesticide damage: Grade 2 ([1]; topramezone 100 g ai/ha (4×)) | Classification and statistics of the grade of pesticide damage: Grade 3 ([1]; topramezone 100 g ai/ha (4×)) | Scores ([1]; topramezone 25 g ai/ha (1×)) | Scores ([1]; topramezone 100 g ai/ha (4×)) | Resistance evaluation ([1]; topramezone 25 g ai/ha (1×)) | Resistance evaluation ([1]; topramezone 100 g ai/ha (4×)) | Resistance evaluation [2, 4] | Scores (pesticide damage) [2, 4] | Classification and statistics of the grade of pesticide damage: Grade 0 (number of plants) [2, 4] | Classification and statistics of the grade of pesticide damage: Grade 1 (number of plants) [2, 4] | Classification and statistics of the grade of pesticide damage: Grade 2 (number of plants) [2, 4] | Classification and statistics of the grade of pesticide damage: Grade 3 (number of plants) [2, 4] | Resistance evaluation [2, 5] | Scores (pesticide damage) [2, 5] | further results
B1 | 0 | 0 | 0 | 16 | 0 | 0 | 0 | 16 | 100 | 100 | non-resistant (non-resistant plants (scores 68-100)) | non-resistant (non-resistant plants (scores 68-100)) | Non-resistant | 100 | 0 | 0 | 0 | 16 | Non-resistant | 100 | Classification and statistics of the grade of pesticide damage: Grade 0 (number of plants) [2, 5]: 0; Classification and statistics of the grade of pesticide damage: Grade 1 (number of plants) [2, 5]: 0; Classification and statistics of the grade of pesticide damage: Grade 2 (number of plants) [2, 5]: 0; Classification and statistics of the grade of pesticide damage: Grade 3 (number of plants) [2, 5]: 16; Resistance evaluation ([3]; mesotrione 52.5 g ai/ha): Non-resistant; Scores ([3]; mesotrione 52.5 g ai/ha): 100; Grade 0 (classification and statistics of the grade of pesticide damage; number of plants) ([3]; mesotrione 52.5 g ai/ha): 0; Grade 1 (classification and statistics of the grade of pesticide damage; number of plants) ([3]; mesotrione 52.5 g ai/ha): 0; Grade 2 (classification and statistics of the grade of pesticide damage; number of plants) ([3]; mesotrione 52.5 g ai/ha): 0; Grade 3 (classification and statistics of the grade of pesticide damage; number of plants) ([3]; mesotrione 52.5 g ai/ha): 16; Resistance evaluation ([3]; mesotrione 105 g ai/ha): Non-resistant; Scores ([3]; mesotrione 105 g ai/ha): 100; Grade 0 (classification and statistics of the grade of pesticide damage; number of plants) ([3]; mesotrione 105 g ai/ha): 0; Grade 1 (classification and statistics of the grade of pesticide damage; number of plants) ([3]; mesotrione 105 g ai/ha): 0; Grade 2 (classification and statistics of the grade of pesticide damage; number of plants) ([3]; mesotrione 105 g ai/ha): 0; Grade 3 (classification and statistics of the grade of pesticide damage; number of plants) ([3]; mesotrione 105 g ai/ha): 16
B2 | 0 | 3 | 9 | 4 | 0 | 0 | 0 | 16 | 69 | 100 | non-resistant (non-resistant plants (scores 68-100)) | non-resistant (non-resistant plants (scores 68-100)) | Non-resistant | 81 | 0 | 0 | 9 | 7 | Non-resistant | 100 | Classification and statistics of the grade of pesticide damage: Grade 0 (number of plants) [2, 5]: 0; Classification and statistics of the grade of pesticide damage: Grade 1 (number of plants) [2, 5]: 0; Classification and statistics of the grade of pesticide damage: Grade 2 (number of plants) [2, 5]: 0; Classification and statistics of the grade of pesticide damage: Grade 3 (number of plants) [2, 5]: 16; Resistance evaluation ([3]; mesotrione 52.5 g ai/ha): Non-resistant; Scores ([3]; mesotrione 52.5 g ai/ha): 100; Grade 0 (classification and statistics of the grade of pesticide damage; number of plants) ([3]; mesotrione 52.5 g ai/ha): 0; Grade 1 (classification and statistics of the grade of pesticide damage; number of plants) ([3]; mesotrione 52.5 g ai/ha): 0; Grade 2 (classification and statistics of the grade of pesticide damage; number of plants) ([3]; mesotrione 52.5 g ai/ha): 0; Grade 3 (classification and statistics of the grade of pesticide damage; number of plants) ([3]; mesotrione 52.5 g ai/ha): 16; Resistance evaluation ([3]; mesotrione 105 g ai/ha): Non-resistant; Scores ([3]; mesotrione 105 g ai/ha): 100; Grade 0 (classification and statistics of the grade of pesticide damage; number of plants) ([3]; mesotrione 105 g ai/ha): 0; Grade 1 (classification and statistics of the grade of pesticide damage; number of plants) ([3]; mesotrione 105 g ai/ha): 0; Grade 2 (classification and statistics of the grade of pesticide damage; number of plants) ([3]; mesotrione 105 g ai/ha): 0; Grade 3 (classification and statistics of the grade of pesticide damage; number of plants) ([3]; mesotrione 105 g ai/ha): 16
